“Also recorded” adds a separate entry of the source. *1 amine or outer side, *2 acyl side, *3 side chain or, on linkers, in order; H or OH if unused. Where no end group is shown, it is not given here. The star is where a group is joined. Malonyl = O=C(CC(=O)[*:2])[*:1]; AMC = Cc1cc(=O)oc2cc(N*)ccc12; Suc = O=C(CCC(=O)[*:2])[*:1]
Experiments:
Sirt2 = molecular target: T1, Sirt2 (Homo sapiens, UniProt Q8IXJ6); assay: Secondary screening using Sirt2 and ISGASE(AcK)-AMC fluorogenic assay; type: biochemical; conditions: inhibitor 30 μM, ISGASE(AcK)-AMC 0.3 mM, Sirt2 1 μM, FIG. 15
T1 construct: made in house
T1 sequence (Q8IXJ6 1-389): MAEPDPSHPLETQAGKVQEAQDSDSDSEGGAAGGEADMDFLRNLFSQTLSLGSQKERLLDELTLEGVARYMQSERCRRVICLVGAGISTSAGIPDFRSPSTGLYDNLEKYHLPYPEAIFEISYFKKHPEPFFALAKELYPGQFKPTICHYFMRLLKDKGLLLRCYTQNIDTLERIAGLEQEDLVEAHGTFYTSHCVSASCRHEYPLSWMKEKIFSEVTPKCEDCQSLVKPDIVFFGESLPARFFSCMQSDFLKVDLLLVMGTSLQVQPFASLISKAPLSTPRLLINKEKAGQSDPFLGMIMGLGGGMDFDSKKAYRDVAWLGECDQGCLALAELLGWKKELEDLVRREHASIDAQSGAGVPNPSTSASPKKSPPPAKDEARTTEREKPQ
Method: SirT2 (1 μM) was incubated with ISGASE(AcK)-AMC (SEQ ID NO:13) peptide (0.3 mM), inhibitors (30 μM), NAD (0.5 mM) in Tris-HCl buffer (pH 7.4, 20 mM) containing dithiothreitol (DTT, 1 mM) in a 60 μL reaction for 4 hours at 37° C. Then trypsin (1 μg) and CaCl2 (1 mM) were added and the reaction were incubated for 3 hours at 37° C. The reactions were diluted with 50 μL water. The mixture (100 μL) was transferred to 96 well plate and the fluorescence was recorded by BIO-TEK® Synergy HT (Optics Position: Top, Sensitivity: 50, Excitation at the wavelength of 360 nm and Emission at the wavelength of 460 nm).

Sirt5 [1] = molecular target: T2, Sirt5 (Homo sapiens, UniProt Q9NXA8); assay: Screening for Sirt5 inhibitors with ISGASE(SuK)-AMC in the fluorogenic assay; type: biochemical; conditions: compound 30 μM, ISGASE(SuK)-AMC 0.3 mM, Sirt5 1 μM, FIG. 13
T2 construct: made in house
T2 sequence (Q9NXA8 37-310): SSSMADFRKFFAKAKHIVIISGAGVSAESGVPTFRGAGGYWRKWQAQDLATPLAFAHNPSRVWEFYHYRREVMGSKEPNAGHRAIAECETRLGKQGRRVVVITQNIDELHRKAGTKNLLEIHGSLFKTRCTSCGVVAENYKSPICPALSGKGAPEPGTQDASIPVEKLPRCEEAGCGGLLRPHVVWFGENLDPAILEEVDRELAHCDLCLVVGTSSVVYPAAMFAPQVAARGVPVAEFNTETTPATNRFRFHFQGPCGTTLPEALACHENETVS
Method: SirT5 (1 μM) was incubated with ISGASE(SuK)-AMC (SEQ ID NO:11) peptide (0.3 mM), NAD (0.5 mM) in Tris-HCl buffer (pH 7.4, 20 mM) with DTT (1 mM) in 60 μL reactions for 4 hours at 37° C. Then trypsin (1 μg) and CaCl2 (1 mM) were added and the reactions were incubated for 3 hours at 37° C. The reactions were the diluted with 50 μL water. The mixture (100 μL) was transferred to 96 well plate and the fluorescence was recorded by BIO-TEK® Synergy HT plate reader (Optics Position: Top, Sensitivity: 50, Excitation at the wavelength of 360 nm and Emission at the wavelength of 460 nm).
The procedure was the same as described above (Assaying Sirt5 activity on ISGASE(SuK)-AMC in the fluorogenic assay), except that different compounds (30 μM) were included in the reactions. In the desuccinylation step, Sirt5 was added last to initiate the desuccinylation reaction.

Sirt5 [2] = molecular target: T2, Sirt5; assay: Sirt5 deacetylation, demalonylation, desuccinylation kinetics on WW-tagged peptides by HPLC; type: biochemical; conditions: peptides with two C-terminal tryptophan residues; for Km: read-out: Peptide Km
Method: (§1) For determination of kcat and Km, human Sirt1, Sirt2, Sirt3 and Sirt5 were measured by detecting the deacylated peptide from H3K9 acyl peptides using HPLC. Purified Sirtuin was incubated with 1.0 mM of NAD in 20 mM Tris-HCl buffer (pH 7.5) containing acyl peptides (0-750 μM) and 1 mM DTT in 60 μL reactions at 37° C. The reactions were stopped with 100 mM HCl and 160 mM acetic acid, analyzed by HPLC with a reverse phase C18 column (250×4.6 mm, 90 A, 10 μm, GraceVydac, Southborough, Mass.), with a linear gradient of 0% to 20% B for 10 min (1 mL/min). […] The kcat and Km values were obtained by curve-fitting the Vinitial/[E] versus [S] plot using KaleidaGraph. For Sirt5 R105M, the observed second order rate constant, kobs (rate/([Sirtuin][NAD])) was detected instead of kcat and Km because of the very weak deacylation activity. The experiments were done in duplicate.
(§2) For comparing the deacetylation, demalonylation and desuccinylation activities of Sirt5 on different peptide backbones (results shown in Table 2), histone H3, GDH and ACS2 peptides with two tryptophan residues at the C-terminal were used to allow better detection and quantification on HPLC. The determination of kcat and Km was carried out essentially the same as mentioned above with slight modifications. The reactions were quenched with 60 μL 10% TFA. The chromatography gradient was 0% to 50% B for 20 min (1 mL/min). The peptides were detected and quantified on the LC by the absorption at 280 nm.

Sirt5 [3] = molecular target: T2, Sirt5; assay: Sirt5-catalyzed desuccinylation of AMC-succinyl peptides monitored by HPLC; type: biochemical; conditions: 2 hrs
Method: […] The reactions were stopped with 200 mM HCl and 320 mM acetic acid, analyzed by HPLC with a reverse phase C18 column (250×4.6 mm, 90 A, 10 μm, GraceVydac, Southborough, Mass.), with a linear gradient of 0% to 20% B for 10 min (1 mL/min).

[4] = substrate: C[C@H](NC(=O)[C@@H](NC(=O)[C@H](CCC(N)=O)NC(=O)[C@@H](N)CCCCN)[C@@H](C)O)C(=O)N[C@@H](CCCNC(=N)N)C(=O)N[C@@H](CCCCNC(=O)CCC(=O)O)C(=O)N[C@@H](CO)C(=O)N[C@H](C(=O)NCC(=O)NCC(=O)N[C@@H](Cc1c[nH]c2ccccc12)C(=O)N[C@@H](Cc1c[nH]c2ccccc12)C(=O)O)[C@@H](C)O; assay: Sirt5 deacetylation, demalonylation, desuccinylation kinetics on WW-tagged peptides by HPLC; type: biochemical, human; conditions: other: Sirt5, peptides with two C-terminal tryptophan residues, pH 7.5
Method: as §1, §2

[5] = substrate: C[C@H](NC(=O)[C@@H](NC(=O)[C@H](CCC(N)=O)NC(=O)[C@@H](N)CCCCN)[C@@H](C)O)C(=O)N[C@@H](CCCNC(=N)N)C(=O)N[C@@H](CCCCNC(=O)CC(=O)O)C(=O)N[C@@H](CO)C(=O)N[C@H](C(=O)NCC(=O)NCC(=O)N[C@@H](Cc1c[nH]c2ccccc12)C(=O)N[C@@H](Cc1c[nH]c2ccccc12)C(=O)O)[C@@H](C)O; assay: as above; type: biochemical, human; conditions: other: Sirt5, peptides with two C-terminal tryptophan residues, pH 7.5
Method: as §1, §2

`Cc1ccc(C(=O)Nc2ccc(S(=O)(=O)O)c3cc(S(=O)(=O)O)cc(S(=O)(=O)O)c23)cc1NC(=O)c1cccc(NC(=O)Nc2cccc(C(=O)Nc3cc(C(=O)Nc4ccc(S(=O)(=O)O)c5cc(S(=O)(=O)O)cc(S(=O)(=O)O)c45)ccc3C)c2)c1` [suramin] was tested, and the “fluorescence produced by Sirt2 in fluorogenic assay” value (Sirt2) was “decreased the fluorescence to almost background level” and the “inhibition of Sirt5 (fluorescence) in fluorogenic assay” value (Sirt5 [1]) was “close to background level; also recorded: significant inhibition”.

Molecule “GDH K503 (498-509 + WW) acetyl peptide: GDH K503 acetyl peptide (498-509) with two C-terminal tryptophan residues (SGASEK(Ac)DIVHSGWW)” has a Km (Sirt5 [2]) greater than 750 µM.

“GDH K503 (498-509 + WW) malonyl peptide: GDH K503 malonyl peptide (498-509) with two C-terminal tryptophan residues (SGASEK(Malonyl)DIVHSGWW)” gave a kcat (Sirt5 [2]) of 0.014 ± 0.001 s⁻¹ and a Km (Sirt5 [2]) of 8.7 ± 1.3 µM.

With “GDH K503 (498-509 + WW) succinyl peptide: GDH K503 succinyl peptide (498-509) with two C-terminal tryptophan residues (SGASEK(Suc)DIVHSGWW)” the kcat (Sirt5 [2]) was 0.028 ± 0.002 s⁻¹ and the Km (Sirt5 [2]) was 14 ± 4 µM.

Molecule ISGASE(SuK)-AMC (ISGASEK(Suc)-{AMC}) has a succinyl peptide desuccinylated (Sirt5 [3]; 1 μM Sirt5, 300 μM peptide) of 7.3%, a succinyl peptide desuccinylated (Sirt5 [3]; 2 μM Sirt5, 300 μM peptide) of 17% and a succinyl peptide desuccinylated (Sirt5 [3]; 5 μM Sirt5, 300 μM peptide) of 36%.

For “KQTARK(Ac)STGGWW [H3 K9 (4-13 + WW) acetyl peptide]”, the Km (Sirt5 [2]) was greater than 750 µM.

B1: Sirt5 (Homo sapiens) (protein)
chain: SSSMADFRKFFAKAKHIVIISGAGVSAESGVPTFRGAGGYWRKWQAQDLATPLAFAHNPSRVWEFYHYRREVMGSKEPNAGHRAIAECETRLGKQGRRVVVITQNIDELHRKAGTKNLLEIHGSLFKTRCTSCGVVAENYKSPICPALSGKGAPEPGTQDASIPVEKLPRCEEAGCGGLLRPHVVWFGENLDPAILEEVDRELAHCDLCLVVGTSSVVYPAAMFAPQVAARGVPVAEFNTETTPATNRFRFHFQGPCGTTLPEALACHENETVS
notes: made in house
In the case of B1, the Km [4] is reported as 5.8 ± 2.7 µM, the kcat [4] is reported as 0.025 ± 0.002 s⁻¹ and the kcat/Km [4] is reported as 4300 M⁻¹ s⁻¹. For the same molecule, the Km [5] was 6.1 ± 2.8 µM, the kcat [5] was 0.037 ± 0.003 s⁻¹ and the kcat/Km [5] was 6100 M⁻¹ s⁻¹.
